# Measurements from patent US20040171158A1 (VECTORLOGICS, published 2004).
# B1: soluble form of the coxsackie virus and adenovirus receptor (CAR) with a carboxy terminal 6His tag (receptor)
# chain: LSITTPEEMIEKAKGETAYLPCKFTLSPEDQGPLDIEWLISPADNQKVDQVIILYSGDKIYDDYYPDLKGRVHFTSNDLKSGDASINVTNLQLSDIGTYQCKVKKAPGVANKKIHLVVLVKPSGARCYVDGSEEIGSDFKIKCEPKEGSLPLQYEWQKLSDSQKMPTSWLAEMTSSVISVKNASSEYSGTYSCTVRNRVGSDQCLLRLNVVPPSNKAHHHHHH
# notes: also called sCAR; native adenoviral receptor
# Assays:
# [1] = target: T1, Ad5 fiber-zipper protein with zipper peptide EE12RR345L at the carboxy terminus of the fiber (Ad5 (adenovirus serotype 5), UniProt P11818 1-581); test: co-precipitation of cell lysate with 6His-tagged sCAR on Ni-NTA matrix, detection with anti-fiber antibody
# T1 construct: Transiently expressed in 293 cells, tested as cell lysate; also called Carboxy terminus of the fiber EE12RR345L; pVS-LL-EN
# [2] = target: T2, Ad5 fiber-zipper protein with zipper peptide RR12EE345L at the carboxy terminus of the fiber (Ad5 (adenovirus serotype 5), UniProt P11818 1-581); test: as above
# T2 construct: Transiently expressed in 293 cells, tested as cell lysate; also called Carboxy terminus of the fiber RR12EE345L; pVS-LL-RN
# T2 sequence: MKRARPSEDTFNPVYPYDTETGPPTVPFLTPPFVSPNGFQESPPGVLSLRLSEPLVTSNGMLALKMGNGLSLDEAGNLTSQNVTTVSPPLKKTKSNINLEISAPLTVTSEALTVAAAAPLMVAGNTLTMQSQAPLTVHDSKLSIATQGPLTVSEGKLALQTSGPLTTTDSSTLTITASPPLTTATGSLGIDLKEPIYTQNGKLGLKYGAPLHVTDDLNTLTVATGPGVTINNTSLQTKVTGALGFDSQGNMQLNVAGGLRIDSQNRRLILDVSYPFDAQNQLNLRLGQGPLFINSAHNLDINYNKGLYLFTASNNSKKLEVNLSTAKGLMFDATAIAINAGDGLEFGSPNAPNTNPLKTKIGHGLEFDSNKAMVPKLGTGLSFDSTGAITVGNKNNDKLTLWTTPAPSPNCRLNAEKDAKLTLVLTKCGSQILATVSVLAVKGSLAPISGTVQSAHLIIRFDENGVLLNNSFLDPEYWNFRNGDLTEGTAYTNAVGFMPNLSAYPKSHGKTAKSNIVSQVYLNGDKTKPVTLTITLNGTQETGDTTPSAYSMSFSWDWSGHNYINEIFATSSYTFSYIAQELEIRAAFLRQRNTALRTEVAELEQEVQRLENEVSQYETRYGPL
binder,measurement,setting,value
B1,binding result,[1],no binding
same,binding result,[2],no binding
